Source: US20170081400A1 (CEPHALON, published 2017)
Numbering of substitutions follows the chain as printed.

T1: human TL1A extracellular domain with N-terminal HIS and FLAG tag (human, UniProt O95150 72-251)
T1 construct: whole entry named. ~70 kDa fraction purified by gel filtration
T1 sequence: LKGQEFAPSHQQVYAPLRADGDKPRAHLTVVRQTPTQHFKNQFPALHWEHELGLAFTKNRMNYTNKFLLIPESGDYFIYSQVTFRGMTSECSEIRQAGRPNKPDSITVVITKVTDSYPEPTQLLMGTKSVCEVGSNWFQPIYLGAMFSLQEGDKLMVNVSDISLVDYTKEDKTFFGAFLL

T2: human TL1A extracellular domain with N-terminal HIS and FLAG tag (human) (UniProt O95150)
T2 sequence: T1 sequence

B1: 320-198 (antibody, human IgG1, name in Kabat numbering, V domains shown)
VH: QVQLVQSGAEVKKPGASVKVSCKASGYTFTSYDINWVRQAPGQGLEWMGWLNPNSGNTGYAQKFQGRVTMTADRSTSTAYMELSSLRSEDTAVYYCAREVPETAAFEYWGQGTLVTVSS
VL: QSVLTQPPSVSGAPGQRVTISCLSSSSDIGAGLGVHWYQQLPGTAPKLLIEGYYNRPSGVPDRFSGSKSGTSASLTITGLLPEDEGDYYCQSYDGTLSALFGGGTKLTVLG
notes: human IgG1, lambda
B2: 320-232 (antibody, human IgG1, name in Kabat numbering, V domains shown)
VH: B1 VH
VL: B1 VL with L23T, S27Y
notes: human IgG1, lambda
B3: 320-239 (antibody, human IgG1, name in Kabat numbering, V domains shown)
VH: B1 VH
VL: B1 VL with L23T, D28W
notes: human IgG1, lambda
B4: 320-242 (antibody, human IgG1, name in Kabat numbering, V domains shown)
VH: B1 VH
VL: B1 VL with L23T, I29S
notes: human IgG1, lambda
B5: 320-235 (antibody, human IgG1, name in Kabat numbering, V domains shown)
VH: B1 VH
VL: B1 VL with L23T, D28Q
notes: human IgG1, lambda
B6: 320-230 (antibody, human IgG1, name in Kabat numbering, V domains shown)
VH: B1 VH
VL: B1 VL with L23T, S27L
notes: human IgG1, lambda
B7: 320-207 (antibody, human IgG1, name in Kabat numbering, V domains shown)
VH: B1 VH
VL: B1 VL with L23T, S24W
notes: human IgG1, lambda
B8: 320-220 (antibody, human IgG1, name in Kabat numbering, V domains shown)
VH: B1 VH
VL: B1 VL with L23T, S26H
notes: human IgG1, lambda
B9: 320-238 (antibody, human IgG1, name in Kabat numbering, V domains shown)
VH: B1 VH
VL: B1 VL with L23T, D28L
notes: human IgG1, lambda
B10: 320-227 (antibody, human IgG1, name in Kabat numbering, V domains shown)
VH: B1 VH
VL: B1 VL with L23T, S27D
notes: human IgG1, lambda
B11: 320-249 (antibody, human IgG1, name in Kabat numbering, V domains shown)
VH: B1 VH
VL: B1 VL with L23T, I29Y
notes: human IgG1, lambda
B12: 320-248 (antibody, human IgG1, name in Kabat numbering, V domains shown)
VH: B1 VH
VL: B1 VL with L23T, I29W
notes: human IgG1, lambda
B13: 320-240 (antibody, human IgG1, name in Kabat numbering, V domains shown)
VH: B1 VH
VL: B1 VL with L23T, D28Y
notes: human IgG1, lambda
B14: 320-223 (antibody, human IgG1, name in Kabat numbering, V domains shown)
VH: B1 VH
VL: B1 VL with L23T, S26W
notes: human IgG1, lambda
B15: 320-222 (antibody, human IgG1, name in Kabat numbering, V domains shown)
VH: B1 VH
VL: B1 VL with L23T, S26L
notes: human IgG1, lambda
B16: 320-247 (antibody, human IgG1, name in Kabat numbering, V domains shown)
VH: B1 VH
VL: B1 VL with L23T, I29L
notes: human IgG1, lambda
B17: 320-209 (antibody, human IgG1, name in Kabat numbering, V domains shown)
VH: B1 VH
VL: B1 VL with L23T, S25A
notes: human IgG1, lambda
B18: 320-250 (antibody, human IgG1, name in Kabat numbering, V domains shown)
VH: B1 VH
VL: B1 VL with L23T, G30A
notes: human IgG1, lambda
B19: 320-202 (antibody, human IgG1, name in Kabat numbering, V domains shown)
VH: B1 VH
VL: B1 VL with L23T, S24Q
notes: human IgG1, lambda
B20: 320-251 (antibody, human IgG1, name in Kabat numbering, V domains shown)
VH: B1 VH
VL: B1 VL with L23T, G30S
notes: human IgG1, lambda
B21: 320-228 (antibody, human IgG1, name in Kabat numbering, V domains shown)
VH: B1 VH
VL: B1 VL with L23T, S27H
notes: human IgG1, lambda
B22: 320-231 (antibody, human IgG1, name in Kabat numbering, V domains shown)
VH: B1 VH
VL: B1 VL with L23T, S27W
notes: human IgG1, lambda
B23: 320-243 (antibody, human IgG1, name in Kabat numbering, V domains shown)
VH: B1 VH
VL: B1 VL with L23T, I29Q
notes: human IgG1, lambda
B24: 320-246 (antibody, human IgG1, name in Kabat numbering, V domains shown)
VH: B1 VH
VL: B1 VL with L23T, I29K
notes: human IgG1, lambda
B25: 320-224 (antibody, human IgG1, name in Kabat numbering, V domains shown)
VH: B1 VH
VL: B1 VL with L23T, S26Y
notes: human IgG1, lambda
B26: 320-234 (antibody, human IgG1, name in Kabat numbering, V domains shown)
VH: B1 VH
VL: B1 VL with L23T, D28S
notes: human IgG1, lambda
B27: 320-225 (antibody, human IgG1, name in Kabat numbering, V domains shown)
VH: B1 VH
VL: B1 VL with L23T, S27A
notes: human IgG1, lambda

Experiments:
[1] = molecular target: T1, human TL1A extracellular domain with …; assay: SPR run 2; supernatant on Protein A; TL1A 10 ug/mL; timepoint 220
Text: (§1) 1.5. Antibody expression and antigen binding as determined by SPR. Using a CM5 sensor chip (GE Healthcare) Protein A (Pierce) was coupled to the chip surface using an amine coupling kit (GE Healthcare). Protein A was coupled on flow cell 1 and 2 (or alternatively 3 and 4) using a BIACORE® T200. […] The amount of supernatant or purified protein (as well as the concentration) injected during the capture stage varied between runs and is specified in the header of the Tables 3-11. At the end of injection of the supernatant or purified antibody the change in response units was measured. This value was reported as Capture Level in Tables 3-11. […] The response units were measured prior to the end of the dissociation phase. […] The sensorgrams were double referenced (flow cell 2 is subtracted from flow cell 1 and a buffer blank). As there were a large number of antibody variants to screen, these were screened across different runs (Tables 3-11). […] A summary of the conditions used in each run is below:
(§2) 2.1. […] In some experiment the antibodies were purified using Protein A chromatography (See 1.4) and purified antibodies were used in BIACORE® (GE Healthcare) experiments.

[2] = molecular target: T1, human TL1A extracellular domain with …; assay: SPR run 2; supernatant on Protein A; TL1A 10 ug/mL; timepoint 44
Text: as §1, §2

[3] = molecular target: T2, human TL1A extracellular domain with N-terminal HIS and FLAG tag (human); assay: cell-based or functional assay

Binder	TL1A Binding Level (Late) [1] [RU]	TL1A Binding Level (Early) [2] [RU]	Antibody IC50, TL1A induced caspase potency assay in TF-1 cells [3] [µg/mL]	Fold improvement over 320-179, TL1A induced caspase potency assay in TF-1 cells [3] [fold]
B1	241	262	0.01	1
B2	235	261	–	–
B3	163	212	–	–
B4	49	124	–	–
B5	236	256	–	–
B6	223	245	–	–
B7	243	268	0.007	3
B8	230	253	–	–
B9	191	221	–	–
B10	218	242	–	–
B11	28	77	–	–
B12	30	96	–	–
B13	196	230	–	–
B14	66	143	–	–
B15	96	156	–	–
B16	162	205	–	–
B17	200	222	0.04	1
B18	115	180	–	–
B19	214	234	0.01	1
B20	50	134	–	–
B21	235	259	–	–
B22	243	271	–	–
B23	26	71	–	–
B24	23	32	–	–
B25	153	198	–	–
B26	239	262	–	–
B27	243	267	–	–
